According to publication doi:10.1101/2024.06.12.598358 (bioRxiv, 2024):
Read-outs that look alike come from different tables or passages of the source. Side chains are listed from the residue outwards. Ends that are not written are not given here. maleimide = maleimide function on the C-terminal Lys

What was measured:
[1] = molecular target: 7xHis-SUMO-MtbClpC1 (M. tuberculosis) (UniProt P9WPC9); assay: MST
[2] = molecular target: Leu-LFVQLASK peptide conjugated to CSGSK^TAMRA; assay: fluorescence polarisation
[3] = molecular target: Trp-LFVQLASK peptide conjugated to CSGSK^TAMRA; assay: fluorescence polarisation
[4] = molecular target: Phe-LFVQLASK peptide conjugated to CSGSK^TAMRA; assay: fluorescence polarisation
[5] = molecular target: Tyr-LFVQLASK peptide conjugated to CSGSK^TAMRA; assay: fluorescence polarisation
[6] = molecular target: 7xHis-SUMO-MtbClpC1 (M. tuberculosis) (UniProt P9WPC9); assay: MST; remark: listed apart in the source
[7] = molecular target: T1, E. coli ClpS (E. coli, UniProt P0A8Q6 1-106); assay: fluorescence polarisation
T1 sequence: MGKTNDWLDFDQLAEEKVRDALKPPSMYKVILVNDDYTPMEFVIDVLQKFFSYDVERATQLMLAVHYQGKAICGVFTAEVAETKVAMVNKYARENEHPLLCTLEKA

Sequence of 7xHis-SUMO-MtbClpC1 (M. tuberculosis) (P9WPC9 whole entry): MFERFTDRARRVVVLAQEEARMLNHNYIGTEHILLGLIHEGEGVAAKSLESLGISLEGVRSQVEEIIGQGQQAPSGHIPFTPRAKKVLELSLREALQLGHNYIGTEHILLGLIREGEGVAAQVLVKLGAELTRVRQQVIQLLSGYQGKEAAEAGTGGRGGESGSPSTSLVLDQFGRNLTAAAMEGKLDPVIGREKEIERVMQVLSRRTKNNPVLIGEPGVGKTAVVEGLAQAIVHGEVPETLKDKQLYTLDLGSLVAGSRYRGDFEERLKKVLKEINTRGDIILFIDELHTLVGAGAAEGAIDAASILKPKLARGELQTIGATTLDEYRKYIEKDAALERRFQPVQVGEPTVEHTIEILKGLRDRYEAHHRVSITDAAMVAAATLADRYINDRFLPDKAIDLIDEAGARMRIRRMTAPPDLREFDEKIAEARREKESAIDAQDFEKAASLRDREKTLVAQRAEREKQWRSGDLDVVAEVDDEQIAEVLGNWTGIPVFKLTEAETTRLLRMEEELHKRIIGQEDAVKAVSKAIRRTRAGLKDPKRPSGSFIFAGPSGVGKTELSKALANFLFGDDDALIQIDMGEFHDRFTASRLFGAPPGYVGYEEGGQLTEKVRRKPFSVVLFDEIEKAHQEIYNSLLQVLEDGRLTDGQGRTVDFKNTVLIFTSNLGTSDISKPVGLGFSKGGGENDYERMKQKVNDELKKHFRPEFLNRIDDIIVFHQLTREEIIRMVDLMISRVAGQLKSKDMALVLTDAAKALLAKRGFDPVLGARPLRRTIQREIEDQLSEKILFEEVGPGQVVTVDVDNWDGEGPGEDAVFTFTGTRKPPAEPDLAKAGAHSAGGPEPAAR

Molecule: M. smegmatis ClpS (natural protein)
- Kd [1]: 100 µM
- Kd [2]: 42 µM
- Kd [3]: 11 µM
- Kd [4]: 6.5 µM
- Kd [5]: 8.8 µM
- Kd [6]: 3.5 µM

Molecule: YLFVQLASK([maleimide-CSGSK(TAMRA)]) (not fully specified) [Tyr-LFVQLASK peptide conjugated to CSGSK^TAMRA]
- binding result [7]: binds

Molecule: FLFVQLASK([maleimide-CSGSK(TAMRA)]) (not fully specified) [Phe-LFVQLASK peptide conjugated to CSGSK^TAMRA]
- binding result [7]: binds

Molecule: LLFVQLASK([maleimide-CSGSK(TAMRA)]) (not fully specified) [Leu-LFVQLASK peptide conjugated to CSGSK^TAMRA]
- binding result [7]: binds

Molecule: WLFVQLASK([maleimide-CSGSK(TAMRA)]) (not fully specified) [Trp-LFVQLASK peptide conjugated to CSGSK^TAMRA]
- binding result [7]: binds
